Publication PMC5890618, “Structural and Functional Insights into Bacillus subtilis Sigma Factor Inhibitor, CsfB” (Structure(London, England:1993), 2018)

T1: σ^G (recombinant full-length sigma factor G, residues 1-260) (Bacillus subtilis, UniProt P19940 1-260)
T1 construct: Cloned into pET-46; also called sigma G; SigG; source: E. coli BL21(DE3)pLysS, purified (HisTrap Ni Sepharose, Superdex75 SEC)
T1 sequence (looked up): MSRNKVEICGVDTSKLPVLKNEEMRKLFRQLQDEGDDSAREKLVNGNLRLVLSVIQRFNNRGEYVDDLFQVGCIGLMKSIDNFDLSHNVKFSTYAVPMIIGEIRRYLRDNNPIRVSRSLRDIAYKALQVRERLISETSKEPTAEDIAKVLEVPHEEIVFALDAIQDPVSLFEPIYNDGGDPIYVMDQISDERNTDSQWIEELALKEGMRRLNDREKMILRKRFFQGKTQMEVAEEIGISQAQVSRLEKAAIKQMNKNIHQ

B1: CsfB^A48E (full-length CsfB variant A48E, residues 1-64) (natural protein, Bacillus subtilis, UniProt P37534 1-64, looked up)
chain: MDETVKLNHTCVICDQEKNRGIHLYTKFICLDCERKVISTSTSDPDYEFYVKKLKSIHTPPLYS
notes: Anti-sigma factor CsfB (also called Gin), Bacillus subtilis strain PY79, full length, residues 1-64, with A48E at the known cleavage point; Made by site-directed mutagenesis of pNIC28-CsfB; The His-tag was removed with TEV 'when required'; 15N-labelled for the NMR titrations; also called Gin A48E; source: E. coli BL21(DE3)pLysS, purified (HisTrap Ni Sepharose, Superdex75 SEC)
B2: σ^E (truncated sigma factor E, residues 17-239, lacking the N-terminal membrane-anchored pro-sequence) (domain or fragment, Bacillus subtilis, UniProt P06222 17-239, looked up)
chain: MKLGLKSDEVYYIGGSEALPPPLSKDEEQVLLMKLPNGDQAARAILIERNLRLVVYIARKFENTGINIEDLISIGTIGLIKAVNTFNPEKKIKLATYASRCIENEILMYLRRNNKIRSEVSFDEPLNIDWDGNELLLSDVLGTDDDIITKDIEANVDKKLLKKALEQLNEREKQIMELRFGLVGEEEKTQKDVADMMGISQSYISRLEKRIIKRLRKEFNKMV
notes: Cloned into pET28-TxrA; The tag was removed with TEV 'when required'; also called sigma E; SigE; source: E. coli BL21(DE3)pLysS, purified (HisTrap Ni Sepharose, Superdex75 SEC)
B3: CsfB^1-48 (truncated wild-type CsfB, stable degradation product, residues 1-48) (domain or fragment, Bacillus subtilis, UniProt P37534 1-48, looked up)
chain: MDETVKLNHTCVICDQEKNRGIHLYTKFICLDCERKVISTSTSDPDYA
notes: Produced as N-terminally histidine-tagged full-length CsfB that degraded to 1-48; Symmetrical homodimer by NMR; also called cleaved CsfB; truncated variant; source: E. coli BL21(DE3)pLysS, purified (HisTrap Ni Sepharose, Superdex75 SEC); arises by degradation of recombinant full-length CsfB

Experiments:
[1] = biological target: B2; assay: ITC; cell 60 uM CsfB^A48E, syringe 395 uM σ^E; 25°C; 19 injections of 2 ul; 50 mM HEPES pH 7.5, 150 mM KCl, 0.5 mM TCEP; fitted assuming 1:1 stoichiometry; conditions: both partners purified
[2] = biological target: T1, σ^G (recombinant full-length sigma …); assay: NMR titration; 15N-labelled CsfB (100 uM for CsfB^A48E) titrated with unlabelled sigma factor up to 1:2 molar equivalents; 1H-15N SOFAST-HMQC; 298 K; 50 mM HEPES pH 7.5, 150 mM KCl, 0.5 mM TCEP; conditions: both partners purified
[3] = biological target: B1; assay: ITC; cell 60 uM CsfB^A48E, syringe 395 uM σ^E; 25°C; 19 injections of 2 ul; 50 mM HEPES pH 7.5, 150 mM KCl, 0.5 mM TCEP; fitted assuming 1:1 stoichiometry; conditions: both partners purified
[4] = biological target: the molecule itself; assay: NMR solution structure; CsfB 1-48 dimer, >500 uM, 303 K, 50 mM HEPES pH 7.5, 150 mM KCl, 0.5 mM TCEP; intermolecular NOEs from 12C-filtered, 13C-edited NOESY on a mixed labelled/unlabelled dimer; ARIA2.3 with C2 symmetry

B1
Kd [1]: 12.5 ± 2.4 nM | binding result [2]: binds

B2
dH [3]: -8.04 ± 0.04 kcal/mol | stoichiometry N [3]: 1.01 sites

B3
stoichiometry N [4]: 2
